From the supplement of paper PMC5998384 come the findings set out here.

For data set [1], the system named is HeLa Kyoto. Description: solubility in G1/S (NP-40 vs SDS abundance) (log2 ratio); higher = more soluble. The following applies: cell cycle stage: G1/S.
In data set [2] the test system is HeLa Kyoto. Description: melting temperature (median over replicates), in situ; higher = more thermally stable.
For data set [3], the system named is HeLa Kyoto. The data set can be described thus: solubility change mitosis vs G1/S (difference of NP-40 vs SDS log2 ratios) (log2 ratio difference); higher = more soluble in mitosis.
The test system of data set [4] is HeLa Kyoto. The data set can be described thus: thermal stability score vs G1/S (z-score of summed log2 fold changes over temperatures); higher = more thermally stable than in G1/S.
[5] abbreviates: cell cycle stage: early G1 (4.5 h after nocodazole release).
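Wherever melting temperature (median over replicates), in situ is given: HeLa Kyoto cells synchronized by double thymidine or nocodazole block, proteins quantified by TMT10plex mass spectrometry, three independent biological replicates.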
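Wherever solubility change mitosis vs G1/S (difference of NP-40 vs SDS log2 ratios) is given: synchronized HeLa Kyoto cells (double thymidine block for G1/S, nocodazole release for mitosis), protein amounts in NP-40 versus SDS lysates quantified by mass spectrometry, three biological replicates.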
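Wherever solubility in G1/S (NP-40 vs SDS abundance) is given: HeLa Kyoto cells arrested at G1/S by double thymidine block, proteins quantified by TMT10plex mass spectrometry in mild NP-40 versus SDS extracts, three biological replicates.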
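Wherever thermal stability score vs G1/S (z-score of summed log2 fold changes over temperatures) is given: synchronized HeLa Kyoto cells, proteins quantified by TMT10plex mass spectrometry, three biological replicates, mitosis taken 0.5 h after nocodazole release, G1/S directly after double thymidine block.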

Take “MAAALGASGGAGAGDDDFDQFDKPGAERSWRRRAADEDWDSELEDDLLGEDLLSGKKNQSDLSDEELNDDLLQSDNEDEENFSSQGVTISLNATSGMVTSFELSDNTNDQSGEQESEYEQEQGEDELVYHKSDGSELYTQEYPEEGQYEGHEAELTEDQIEYVEEPEEEQLYTDEVLDIEINEPLDEFTGGMETLELQKDIKEESDEEEEDDEESGRLRFKTERKEGTIIRLSDVTRERRNIPETLELSAEAKAALLEFEERERQHKQGRYSSRRGGRRGGPLMCRGVGDQRRESTERGRMKDHRPALLPTQPPVVPQAPPPPPPPPQQQPIRSLFQPQPLQPLLPVQHPHHPSPPQGMHMPPQLETPRMMMTPPPVTPQQPKNIHINPHFKGTVVTPVQVPLLPVPSQPRPAVGPQRFPGPPEFPQHTPGPVPNSFSQPPRLPLQDQWRAPPPPQDRDPFFLGVSGEPRFPSHLFLEQRSPPPPPPPPTLLNSSHPVPTQSPLPFTQPGPAFNQQGQQPVFPRERPVRPALQPPGPVGILHFSQPGSATTRPFIPPRQPFLPGPGQPFLPTHTQPNLQGPLHPPLPPPHQPQPQQPQQQPPPQHQPPHQPPHQPPPQHQPPPQHPPQHPPQHQHHHHHHHLSVPPPPLMPMSQPQFRPHVQTAQPQASSSRMQCPQRQGLRHNTTSQNVSKRPMQQMQPTAPRNSNLRELPIAPSHVIEMSSSRCSATPSAQVKPIVSASPPSRAVAGSRSSQGKTEVKVKPASPVAQPKEEAKTETEFPDEDEETRLYRLKIEEQKRLREEILKQKELRRQQQAGARKKELLERLAQQQQQLYAPPPPAEQEEQALSPSPTNGNPLLPFPGAQVRQNVKNRLLVKNQDVSISNVQPKTSNFVPSSANMQYQGQQMKALKHLRQTRTVPQSQTQPLHKVLPIKPADVEEPAVPQTPRVASIQGRPQDTKPGVKRTVTHRTNSGGGDGPHISSKVRVIKLSGGGGESDGFFHPEGQPQRLPQPPEVGPQPARKVTLTRGGLQQPPHLPAGPHAHSPVPPGIKSIQGIHPAKKAIMHGRGRGVAGPMGRGRLMPNKQNLRVVECKPQPCVVSVEGLSSSTTDAQLKSLLMSVGPIQSLQMLPQQRKAIAKFKEPAHALAFQQKFHRHMIDLSHINVALIVE [RBM33]”: the “solubility in G1/S (log2)” value in the data set with HeLa Kyoto [1] is -0.022. The melting temperature in the data set with HeLa Kyoto [2] (cell cycle stage: G1/S) came to 48.8 °C; with HeLa Kyoto [2] (cell cycle stage: mitosis), 50.8 °C. The “solubility change mitosis (log2)” value in the data set on HeLa Kyoto [3] is -0.145. Moreover, the figures for the thermal stability score in the data set with HeLa Kyoto [4] (setting [5]) and in the data set on HeLa Kyoto [4] (cell cycle stage: mitosis) were 0.706 and 2.36, respectively.

As to “MAAAMPLALLVLLLLGPGGWCLAEPPRDSLREELVITPLPSGDVAATFQFRTRWDSELQREGVSHYRLFPKALGQLISKYSLRELHLSFTQGFWRTRYWGPPFLQAPSGAELWVWFQDTVTDVDKSWKELSNVLSGIFCASLNFIDSTNTVTPTASFKPLGLANDTDHYFLRYAVLPREVVCTENLTPWKKLLPCSSKAGLSVLLKADRLFHTSYHSQAVHIRPVCRNARCTSISWELRQTLSVVFDAFITGQGKKDWSLFRMFSRTLTEPCPLASESRVYVDITTYNQDNETLEVHPPPTTTYQDVILGTRKTYAIYDLLDTAMINNSRNLNIQLKWKRPPENEAPPVPFLHAQRYVSGYGLQKGELSTLLYNTHPYRAFPVLLLDTVPWYLRLYVHTLTITSKGKENKPSYIHYQPAQDRLQPHLLEMLIQLPANSVTKVSIQFERALLKWTEYTPDPNHGFYVSPSVLSALVPSMVAAKPVDWEESPLFNSLFPVSDGSNYFVRLYTEPLLVNLPTPDFSMPYNVICLTCTVVAVCYGSFYNLLTRTFHIEEPRTGGLAKRLANLIRRARGVPPL [PIGT]”, in the data set on HeLa Kyoto [1], the “solubility in G1/S (log2)” value was 0.0123. Further, the results for the melting temperature in the data set with HeLa Kyoto [2] (cell cycle stage: G1/S) and with HeLa Kyoto [2] (cell cycle stage: mitosis) were 53.8 °C and 52.5 °C, respectively. The “solubility change mitosis (log2)” value in the data set on HeLa Kyoto [3] is -0.141. The thermal stability score in the data set with HeLa Kyoto [4] (setting [5]) was 1.75; in the data set with HeLa Kyoto [4] (cell cycle stage: mitosis) it was 1.86.

In the case of “MAAAPLKVCIVGSGNWGSAVAKIIGNNVKKLQKFASTVKMWVFEETVNGRKLTDIINNDHENVKYLPGHKLPENVVAMSNLSEAVQDADLLVFVIPHQFIHRICDEITGRVPKKALGITLIKGIDEGPEGLKLISDIIREKMGIDISVLMGANIANEVAAEKFCETTIGSKVMENGLLFKELLQTPNFRITVVDDADTVELCGALKNIVAVGAGFCDGLRCGDNTKAAVIRLGLMEMIAFARIFCKGQVSTATFLESCGVADLITTCYGGRNRRVAEAFARTGKTIEELEKEMLNGQKLQGPQTSAEVYRILKQKGLLDKFPLFTAVYQICYESRPVQEMLSCLQSHPEHT [GPD1L]”, in the data set with HeLa Kyoto [1], the “solubility in G1/S (log2)” value was 0.144. The melting temperature with HeLa Kyoto [2] (cell cycle stage: G1/S) amounted to 53.2 °C; with HeLa Kyoto [2] (cell cycle stage: mitosis) it was 53 °C. Besides, the “solubility change mitosis (log2)” value with HeLa Kyoto [3] is -0.126. The thermal stability score was 0.464 in the data set with HeLa Kyoto [4] (setting [5]) and -0.000421 in the data set on HeLa Kyoto [4] (cell cycle stage: mitosis).

For the sequence “MAAAPPLRDRLSFLHRLPILLKGTSDDDVPCPGYLFEEIAKISHESPGSSQCLLEYLLSRLHSSSGHGKLKVLKILLYLCSHGSSFFLLILKRNSAFIQEAAAFAGPPDPLHGNSLYQKVRAAAQDLGSTLFSDTVLPLAPSQPLGTPPATGMGSQARPHSTLQGFGYSKEHGRTAVRHQPGQAGGGWDELDSGPSSQNSSQNSDLSRVSDSGSHSGSDSHSGASREPGDLAERVEVVALSDCQQELSLVRTVTRGPRAFLSREEAQHFIKACGLLNCEAVLQLLTCHLRGTSECTQLRALCAIASLGSSDLLPQEHILLRTRPWLQELSMGSPGPVTNKATKILRHFEASCGQLSPARGTSAEPGPTAALPGPSDLLTDAVPLPGSQVFLQPLSSTPVSSRSPAPSSGMPSSPVPTPPPDASPIPAPGDPSEAEARLAESRRWRPERIPGGTDSPKRGPSSCAWSRDSLFAGMELVACPRLVGAGAAAGESCPDAPRAPQTSSQRTAAKEPPGSEPSAFAFLNA [ENTHD2]”, the “solubility in G1/S (log2)” value in the data set with HeLa Kyoto [1] came to 0.305. Also, the melting temperature was found to be 53.4 °C with HeLa Kyoto [2] (cell cycle stage: G1/S) and 50.6 °C in the data set on HeLa Kyoto [2] (cell cycle stage: mitosis). Besides, the “solubility change mitosis (log2)” value in the data set with HeLa Kyoto [3] came to 0.0532. Moreover, the thermal stability score in the data set on HeLa Kyoto [4] (setting [5]) is -0.323; in the data set with HeLa Kyoto [4] (cell cycle stage: mitosis), -0.0735.

Consider “MAAARATTPADGEEPAPEAEALAAARERSSRFLSGLELVKQGAEARVFRGRFQGRAAVIKHRFPKGYRHPALEARLGRRRTVQEARALLRCRRAGISAPVVFFVDYASNCLYMEEIEGSVTVRDYIQSTMETEKTPQGLSNLAKTIGQVLARMHDEDLIHGDLTTSNMLLKPPLEQLNIVLIDFGLSFISALPEDKGVDLYVLEKAFLSTHPNTETVFEAFLKSYSTSSKKARPVLKKLDEVRLRGRKRSMVG [TP53RK]”, for which the “solubility in G1/S (log2)” value with HeLa Kyoto [1] came to 0.367. Further, the melting temperature in the data set with HeLa Kyoto [2] (cell cycle stage: G1/S) came to 55.1 °C; in the data set on HeLa Kyoto [2] (cell cycle stage: mitosis), 53 °C. Also, in the data set with HeLa Kyoto [3], the “solubility change mitosis (log2)” value is -0.151. Besides, the thermal stability score in the data set on HeLa Kyoto [4] (setting [5]) was 0.0261; in the data set on HeLa Kyoto [4] (cell cycle stage: mitosis) it was -0.818.

On to “MAAASAVSVLLVAAERNRWHRLPSLLLPPRTWVWRQRTMKYTTATGRNITKVLIANRGEIACRVMRTAKKLGVQTVAVYSEADRNSMHVDMADEAYSIGPAPSQQSYLSMEKIIQVAKTSAAQAIHPGCGFLSENMEFAELCKQEGIIFIGPPPSAIRDMGIKSTSKSIMAAAGVPVVEGYHGEDQSDQCLKEHARRIGYPVMIKAVRGGGGKGMRIVRSEQEFQEQLESARREAKKSFNDDAMLIEKFVDTPRHVEVQVFGDHHGNAVYLFERDCSVQRRHQKIIEEAPAPGIKSEVRKKLGEAAVRAAKAVNYVGAGTVEFIMDSKHNFCFMEMNTRLQVEHPVTEMITGTDLVEWQLRIAAGEKIPLSQEEITLQGHAFEARIYAEDPSNNFMPVAGPLVHLSTPRADPSTRIETGVRQGDEVSVHYDPMIAKLVVWAADRQAALTKLRYSLRQYNIVGLHTNIDFLLNLSGHPEFEAGNVHTDFIPQHHKQLLLSRKAAAKESLCQAALGLILKEKAMTDTFTLQAHDQFSPFSSSSGRRLNISYTRNMTLKDGKNNVAIAVTYNHDGSYSMQIEDKTFQVLGNLYSEGDCTYLKCSVNGVASKAKLIILENTIYLFSKEGSIEIDIPVPKYLSSVSSQETQGGPLAPMTGTIEKVFVKAGDKVKAGDSLMVMIAMKMEHTIKSPKDGTVKKVFYREGAQANRHTPLVEFEEEESDKRESE [MCCC1]”, for which, in the data set on HeLa Kyoto [1], the “solubility in G1/S (log2)” value was -0.0598. For the same sequence, the melting temperature in the data set on HeLa Kyoto [2] (cell cycle stage: G1/S) is 51.4 °C; in the data set on HeLa Kyoto [2] (cell cycle stage: mitosis), 51.3 °C. In addition, the “solubility change mitosis (log2)” value in the data set with HeLa Kyoto [3] is -0.125. Also, the thermal stability score was -0.414 in the data set on HeLa Kyoto [4] (setting [5]) and -0.17 in the data set with HeLa Kyoto [4] (cell cycle stage: mitosis).

Turning to “MAAASGSVLQRCIVSPAGRHSASLIFLHGSGDSGQGLRMWIKQVLNQDLTFQHIKIIYPTAPPRSYTPMKGGISNVWFDRFKITNDCPEHLESIDVMCQVLTDLIDEEVKSGIKKNRILIGGFSMGGCMAIHLAYRNHQDVAGVFALSSFLNKASAVYQALQKSNGVLPELFQCHGTADELVLHSWAEETNSMLKSLGVTTKFHSFPNVYHELSKTELDILKLWILTKLPGEMEKQK [LYPLAL1]”, the “solubility in G1/S (log2)” value in the data set on HeLa Kyoto [1] was 0.361. Moreover, the melting temperature in the data set with HeLa Kyoto [2] (cell cycle stage: G1/S) is 52 °C; in the data set with HeLa Kyoto [2] (cell cycle stage: mitosis), 52.3 °C. In addition, the “solubility change mitosis (log2)” value in the data set with HeLa Kyoto [3] is -0.0182. The thermal stability score worked out at 1.32 in the data set with HeLa Kyoto [4] (setting [5]) and 0.974 in the data set with HeLa Kyoto [4] (cell cycle stage: mitosis).

For “MAAASPLRDCQAWKDARLPLSTTSNEACKLFDATLTQYVKWTNDKSLGGIEGCLSKLKAADPTFVMGHAMATGLVLIGTGSSVKLDKELDLAVKTMVEISRTQPLTRREQLHVSAVETFANGNFPKACELWEQILQDHPTDMLALKFSHDAYFYLGYQEQMRDSVARIYPFWTPDIPLSSYVKGIYSFGLMETNFYDQAEKLAKEALSINPTDAWSVHTVAHIHEMKAEIKDGLEFMQHSETFWKDSDMLACHNYWHWALYLIEKGEYEAALTIYDTHILPSLQANDAMLDVVDSCSMLYRLQMEGVSVGQRWQDVLPVARKHSRDHILLFNDAHFLMASLGAHDPQTTQELLTTLRDASESPGENCQHLLARDVGLPLCQALVEAEDGNPDRVLELLLPIRYRIVQLGGSNAQRDVFNQLLIHAALNCTSSVHKNVARSLLMERDALKPNSPLTERLIRKAATVHLMQ [TTC38]”, in the data set on HeLa Kyoto [1], the “solubility in G1/S (log2)” value amounted to 0.319. The melting temperature with HeLa Kyoto [2] (cell cycle stage: G1/S) and in the data set with HeLa Kyoto [2] (cell cycle stage: mitosis) was 53.1 °C each time. For the same sequence, in the data set on HeLa Kyoto [3], the “solubility change mitosis (log2)” value is -0.0718. Further, the thermal stability score with HeLa Kyoto [4] (setting [5]) is -0.435; in the data set on HeLa Kyoto [4] (cell cycle stage: mitosis) it was -0.408.
